Experimental data reported in US20250223366A1 (BIOTHEUS, published 2025).
Changes are numbered by the printed parent chain.

Assays:
[1] = molecular target: T1, EGFR expressed on H292 cells (human, UniProt P00533 25-1210); experiment: flow cytometry on H292 cells, blocking of biotin-h.EGF (100 nM) binding to EGFR; EGFRxMET-136; blocking of EGF on H292 cells
T1 construct: whole, on cells; H292 cells also express c-Met; also called epidermal growth factor receptor
Procedure: (§1) H292 cells, which were human non-small cell lung cancer cells purchased from Procell, were capable of expressing EGFR and c-Met receptors. H292 cells were expanded to a suitable density, digested and detached from the cell culture flask, resuspended to 1×10⁶ cells/ml, added to a 96-well flow plate, 100 μL per well, and centrifuged for later use. The antibody to be tested was subjected to 3-fold dilution with PBS, starting from 200 nM, and the diluted sample was added to the 96-well flow plate with cells, 100 μL/well, and incubated at 25° C. for 60 min. […] Streptavidin-FITC (purchased from Jackson) was diluted 100 times with PBS and added to the plate, 100 µL/well, incubated at 4° C. for 30 min, and washed twice with PBS. 100 μL/well of PBS was added to resuspend the cells, then the cells were detected on a CytoFlex (Beckman) flow cytometer, and the corresponding MFI was calculated.

[2] = molecular target: T2, EGFR and c-Met receptors co-expressed on A375 or H292 cells (human, UniProt P00533 25-1210; P08581 25-1390); experiment: flow cytometry, binding to A375 cells (low EGFR and c-Met expression); A375 cells
T2 construct: whole, on cells; Not a complex; also called EGFR and c-Met positive tumor cells
From the text: (§2) A375 cells were human malignant melanoma cells and purchased from Addexbio, which were capable of low expression of EGFR and c-Met receptors. H292 cells were human lung adenocarcinoma cells and purchased from procell, which were capable of high expression of EGFR and c-Met receptors. HCC827 cells were human non-small cell lung cancer cells and purchased from the Cell Bank of the Chinese Academy of Sciences, which were capable of high expression of EGFR and c-Met receptors. The expanded cells were adjusted to an appropriate cell density, and added to a 96-well flow plate. After centrifugation, the gradiently diluted samples to be tested were added and incubated at 4° C. for 1 hour. The cells were washed twice with PBS, then a fluorescent secondary antibody, diluted to an appropriate concentration, was added, incubated at 4° C. for 30 min, and washed twice with PBS. The cells were resuspended by PBS, and detected on a CytoFlex flow cytometer, and corresponding MFI was calculated.

[3] = molecular target: T2, EGFR and c-Met receptors co-expressed …; experiment: flow cytometry, binding to A375 cells (low EGFR and c-Met expression)
From the text: as §2

[4] = molecular target: T2, EGFR and c-Met receptors co-expressed …; experiment: flow cytometry, binding to H292 cells (high EGFR and c-Met expression)
From the text: as §2

[5] = molecular target: T1, EGFR expressed on H292 cells; experiment: flow cytometry on H292 cells, blocking of biotin-h.EGF (100 nM) binding to EGFR; EGFRxMET-187; blocking of EGF on H292 cells
Procedure: as §1

human c-MET protein = molecular target: T3, human c-MET protein (human, UniProt P08581 25-932); experiment: ForteBio (BLI) affinity assay, human c-Met protein
T3 construct: The construct is not described; also called cellular mesenchymal epithelial transition factor (c-Met) antigen
T3 sequence (P08581 25-932 limits assumed): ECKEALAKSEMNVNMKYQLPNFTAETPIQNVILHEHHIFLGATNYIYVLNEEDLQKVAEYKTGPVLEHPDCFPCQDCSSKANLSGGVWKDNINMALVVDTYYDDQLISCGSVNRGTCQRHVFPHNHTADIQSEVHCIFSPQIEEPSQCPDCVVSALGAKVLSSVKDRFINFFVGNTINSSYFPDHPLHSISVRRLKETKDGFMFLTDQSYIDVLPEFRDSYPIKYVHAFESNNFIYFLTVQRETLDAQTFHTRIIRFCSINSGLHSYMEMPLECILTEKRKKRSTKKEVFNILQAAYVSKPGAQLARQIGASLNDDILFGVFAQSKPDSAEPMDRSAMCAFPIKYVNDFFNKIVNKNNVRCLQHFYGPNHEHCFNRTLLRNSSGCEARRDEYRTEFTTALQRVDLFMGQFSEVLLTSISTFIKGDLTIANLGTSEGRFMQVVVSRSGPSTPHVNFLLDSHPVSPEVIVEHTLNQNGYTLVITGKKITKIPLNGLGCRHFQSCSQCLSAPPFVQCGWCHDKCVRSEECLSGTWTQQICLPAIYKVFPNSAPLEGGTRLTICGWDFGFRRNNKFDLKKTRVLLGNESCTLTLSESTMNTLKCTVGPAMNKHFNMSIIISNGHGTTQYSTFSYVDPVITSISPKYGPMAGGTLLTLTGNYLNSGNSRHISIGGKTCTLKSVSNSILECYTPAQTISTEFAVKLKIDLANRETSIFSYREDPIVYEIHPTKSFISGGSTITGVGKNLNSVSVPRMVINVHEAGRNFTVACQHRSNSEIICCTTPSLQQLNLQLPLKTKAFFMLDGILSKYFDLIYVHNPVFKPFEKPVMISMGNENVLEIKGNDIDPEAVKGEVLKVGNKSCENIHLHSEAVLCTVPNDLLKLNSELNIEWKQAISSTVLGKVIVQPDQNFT
Procedure: (§3) After the antibodies were prepared, the ForteBio affinity assay was performed according to the reported method (Estep, P et al., Determination of antibody-antigen affinity and epitope binding based on high-throughput methods. MAbs, 2013.5(2): p. 270-8).

monkey c-MET protein = molecular target: T4, monkey c-MET protein (monkey, UniProt A0A2K5UM36 25-932); experiment: ForteBio (BLI) affinity assay, monkey c-Met protein
T4 construct: The construct is not described
T4 sequence (A0A2K5UM36 entry or part of it limits assumed): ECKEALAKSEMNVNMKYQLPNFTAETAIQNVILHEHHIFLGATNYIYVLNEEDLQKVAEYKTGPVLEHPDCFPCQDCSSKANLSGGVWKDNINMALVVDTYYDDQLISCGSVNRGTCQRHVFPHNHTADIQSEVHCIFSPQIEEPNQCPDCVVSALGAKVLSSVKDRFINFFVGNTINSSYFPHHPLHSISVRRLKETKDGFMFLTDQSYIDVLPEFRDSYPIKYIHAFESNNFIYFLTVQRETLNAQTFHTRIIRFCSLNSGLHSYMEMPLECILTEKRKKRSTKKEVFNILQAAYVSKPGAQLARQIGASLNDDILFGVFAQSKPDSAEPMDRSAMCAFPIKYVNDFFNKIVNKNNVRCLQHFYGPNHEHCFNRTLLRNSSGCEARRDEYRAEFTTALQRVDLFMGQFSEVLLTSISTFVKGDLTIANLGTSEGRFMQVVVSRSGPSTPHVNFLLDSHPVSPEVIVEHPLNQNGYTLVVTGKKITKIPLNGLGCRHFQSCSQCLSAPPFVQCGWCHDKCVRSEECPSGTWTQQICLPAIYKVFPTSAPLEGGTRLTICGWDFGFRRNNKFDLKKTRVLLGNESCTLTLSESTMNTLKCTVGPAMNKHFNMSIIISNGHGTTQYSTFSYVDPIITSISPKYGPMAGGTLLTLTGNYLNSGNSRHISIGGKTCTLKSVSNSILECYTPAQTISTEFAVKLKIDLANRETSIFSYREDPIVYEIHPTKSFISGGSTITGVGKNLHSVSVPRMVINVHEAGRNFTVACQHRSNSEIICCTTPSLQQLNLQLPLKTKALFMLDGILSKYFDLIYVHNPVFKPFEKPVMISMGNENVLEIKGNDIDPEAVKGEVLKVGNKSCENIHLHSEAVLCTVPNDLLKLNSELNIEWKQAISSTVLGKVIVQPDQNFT
Procedure: as §3

[6] = molecular target: T1, EGFR expressed on H292 cells; experiment: flow cytometry on H292 cells; antibody titrated, then 100 nM Biotin-h.EGF as the blocked ligand, detected with Streptavidin-FITC
Procedure: as §1

B1: EGFRxMET-136 (bispecific antibody, human IgG1, kappa)
heavy 1: not shown
light 1: not shown
heavy 2: not shown
light 2: DIVMTQSPSSVSASVGDRVTITCRASQGISSWLAWYQQKPGKAPKLLIYAVSSLQSGVPSRFSGSGSGTDFTLTISSLQPEDFATYFCQQANSFPLTFGGGTKVEIKRTVAAPSVFIFPPSDEQLKSGTASVVCLLNNFYPREAKVQWKVDNALQSGNSQESVTEQDSKDSTYSLSSTLTLSKADYEKHKVYACEVTHQGLSSPVTKSFNRGEC
notes: 1+1 heterodimeric IgG1-type bispecific
With B1 the IC50 [1] was 3.15 nM.

B2: EGFRxMET-136 Afu (bispecific antibody, human IgG1, kappa)
heavy 1: not shown
light 1: B1 light 2 with T129R, T178R, T180Q
heavy 2: not shown
light 2: DIQLTQSPSSLSASVGDRVTITCRASQDISSALVWYQQKPGKAPKLLIYDASSLESGVPSRFSGSESGTDFTLTISSLQPEDFATYYCQQFNSYPLTFGGGTKVEIKRTVAAPSVFIFPPSDEELKSGTASVQCLLNNFYPREAKVQWKVDNALQSGNSQESVTEQDSKDSTYSLSSELTLSKADYEKHKVYACEVTHQGLSSPVTKSFNRGEC
modifications: afucosylated glycan
Binder B2 has an EC50 [2] of 1.35 nM.

B3: EGFRxMET-187 Afu (bispecific antibody, human IgG1, kappa)
heavy 1: not shown
light 1: not shown
heavy 2: not shown
light 2: B1 light 2 with K45N, V51A, S53N, Q55P, D70V, F87Y, A91S
modifications: afucosylated glycan
B3 was tested, and the EC50 [3] was 1.05 nM and the EC50 [4] was 1.46 nM.

B4: EGFRxMET-187 (bispecific antibody, human IgG1, kappa)
heavy 1: not shown
light 1: not shown
heavy 2: not shown
light 2: B1 light 2 with K45N, V51A, S53N, Q55P, D70V, F87Y, A91S
notes: as for B1
B4 gave an IC50 [5] of 2.9 nM.

B5: anti-c-MET antibody 136 (antibody, V domains shown)
VH: EVQLQESGPGLVKPSETLSLTCTVSGGSVTSVNYYWKWIRQPPGKGLEWIGYISYSGNTNYNPSLKSRVTISVDTSKNQFSLKLSSVTAADTAVYYCVRAPYYYMDVWSKGTTVTVSS
VL: DIVMTQSPSSVSASVGDRVTITCRASQGISSWLAWYQQKPGKAPKLLIYAVSSLQSGVPSRFSGSGSGTDFTLTISSLQPEDFATYFCQQANSFPLTFGGGTKVEIK
notes: Candidate from yeast display screening, as tested in the ForteBio assay
B5 was tested, and the Kd (human c-MET protein) was 0.0293 nM, the koff (human c-MET protein) was 6.71e-06 s⁻¹ and the kon (human c-MET protein) was 229000 M⁻¹ s⁻¹. It also gave a Kd (monkey c-MET protein) of 1.16 nM, a koff (monkey c-MET protein) of 0.000426 s⁻¹ and a kon (monkey c-MET protein) of 369000 M⁻¹ s⁻¹.

B6: anti-c-MET antibody 187 (antibody, V domains shown)
VH: ELQLQESGPGLVKPSETLSLTCTVSGGSISSSSYYWGWIRQSPGKGLEWIGSRYYSGNTYYNPSLKSRVTMSVDTSKNQFSLKLRSVTAADTAVYYCARQVYDYWRDWGQGALVTVSS
VL: B5 VL with K45N, V51A, S53N, Q55P, D70V, F87Y, A91S
notes: as for B5
B6 showed a Kd (human c-MET protein) of 1.68 nM, a koff (human c-MET protein) of 0.000369 s⁻¹ and a kon (human c-MET protein) of 220000 M⁻¹ s⁻¹. For the same binder, the Kd (monkey c-MET protein) was 2.92 nM, the koff (monkey c-MET protein) was 0.000947 s⁻¹ and the kon (monkey c-MET protein) was 324000 M⁻¹ s⁻¹.

B7: Amivantamab analog (bispecific antibody, human IgG1, kappa)
anti-EGFR heavy chain (EGFR-1 Fc): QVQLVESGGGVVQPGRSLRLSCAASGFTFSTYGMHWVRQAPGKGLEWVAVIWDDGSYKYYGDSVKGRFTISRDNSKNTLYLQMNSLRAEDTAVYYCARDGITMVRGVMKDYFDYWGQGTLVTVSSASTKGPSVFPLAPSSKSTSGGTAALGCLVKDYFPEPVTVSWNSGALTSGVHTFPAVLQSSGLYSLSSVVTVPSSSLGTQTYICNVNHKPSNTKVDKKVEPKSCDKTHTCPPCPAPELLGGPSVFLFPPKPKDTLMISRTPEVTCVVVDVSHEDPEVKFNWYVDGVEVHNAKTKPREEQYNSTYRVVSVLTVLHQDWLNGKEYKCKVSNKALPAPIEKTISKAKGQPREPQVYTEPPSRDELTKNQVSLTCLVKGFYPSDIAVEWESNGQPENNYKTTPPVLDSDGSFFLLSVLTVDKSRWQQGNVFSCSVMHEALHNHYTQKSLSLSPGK
anti-EGFR light chain: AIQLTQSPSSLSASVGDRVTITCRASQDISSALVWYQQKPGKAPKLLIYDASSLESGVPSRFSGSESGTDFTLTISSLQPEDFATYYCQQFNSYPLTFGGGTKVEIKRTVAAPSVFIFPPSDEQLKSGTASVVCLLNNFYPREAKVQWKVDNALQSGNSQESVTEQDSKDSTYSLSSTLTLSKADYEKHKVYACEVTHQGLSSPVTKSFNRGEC
anti-cMet control heavy chain (cMet-2 Fc): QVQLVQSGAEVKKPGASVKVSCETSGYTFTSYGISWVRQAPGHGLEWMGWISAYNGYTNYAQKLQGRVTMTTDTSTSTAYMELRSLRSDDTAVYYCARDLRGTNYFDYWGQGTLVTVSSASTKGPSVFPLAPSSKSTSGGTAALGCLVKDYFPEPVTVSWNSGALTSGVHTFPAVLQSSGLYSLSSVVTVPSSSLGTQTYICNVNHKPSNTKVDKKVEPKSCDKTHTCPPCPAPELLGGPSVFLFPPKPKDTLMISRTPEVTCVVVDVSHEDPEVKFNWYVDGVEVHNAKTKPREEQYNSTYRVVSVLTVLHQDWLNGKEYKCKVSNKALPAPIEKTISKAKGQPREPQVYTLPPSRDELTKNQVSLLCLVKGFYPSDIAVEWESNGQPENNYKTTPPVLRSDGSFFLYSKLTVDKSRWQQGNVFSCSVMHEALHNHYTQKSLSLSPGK
anti-cMet control light chain: DIQMTQSPSSVSASVGDRVTITCRASQGISNWLAWFQHKPGKAPKLLIYAASSLLSGVPSRFSGSGSGTDFTLTISSLQPEDFATYYCQQANSFPITFGQGTRLEIKRTVAAPSVFIFPPSDEQLKSGTASVVCLLNNFYPREAKVQWKVDNALQSGNSQESVTEQDSKDSTYSLSSTLTLSKADYEKHKVYACEVTHQGLSSPVTKSFNRGEC
notes: also called control antibody; control molecule Amivantamab
B7 was tested, and the IC50 [6] was 2.64 nM.
